Measurements reported in US20260021140A1 (SCG CELL THERAPY PTE, published 2026).

T1: HBV surface antigen (HBsAg), S20-28, genotypes B and C peptide on HLA-A*02:01 (human)
T1 peptide: FLLTKILTI


How the values were obtained:
[1] = biological target: T1, HBV surface antigen (HBsAg), S20-28, …; experiment: cytokine release
[2] = biological target: S20 epitope peptide presented by HLA-A*02:01 on HepG2 cells (Hepatitis B virus, genotypes A and D; …); experiment: cell-based or functional assay

Row | Binder | binding result [1] | killing ratio on HepG2-LMS-LG cells (RTCA, 48 h, E:T 2:1, 1:2, 1:8) [2]
1 | B01 TCR (TCR, V domains shown) Valpha: QELEQSPQSLIVQEGKNLTINCTSSKTLYGLYWYKQKYGEGLIFLMMLQKGGEEKSHEKITAKLDEKKQQSSLHITASQPSHAGIYLCGADTSTDKLIFGTGTRLQVFP Vbeta: GVTQTPRYLIKTRGQQVTLSCSPISGHRSVSWYQQTPGQGLQFLFEYFSETQRNKGNFPGRFSGRQFSNSRSEMNVSTLELGDSALYLCASSHGGAYEQYFGPGTRLTVT | recognises | 
2 | C01 TCR (HBV S20 TCR, modified, expressed on C01 TCR-T cells) (TCR, V domains shown) V domain 1: SQQGEEDPQALSIQEGENATMNCSYKTSINNLQWYRQNSGRGLVHLILIRSNEREKHSGRLRVTLDTSKKSSSLLITASRAADTASYFCATDAYGQNFVFGPGTRLSVLP V domain 2: GVIQSPRHEVTEMGQEVTLRCKPISGHDYLFWYRQTMMRGLELLIYFNNNVPIDDSGMPEDRFSAKMPNASFSTLKIQPSEPRDSAVYFCASGSNTEAFFGQGTRLTVVE |  | > 60%
3 | B01 TCR (HBV S20 TCR, modified, expressed on B01 TCR-T cells) (TCR, V domains shown) V domain 1: SQELEQSPQSLIVQEGKNLTINCTSSKTLYGLYWYKQKYGEGLIFLMMLQKGGEEKSHEKITAKLDEKKQQSSLHITASQPSHAGIYLCGADTSTDKLIFGTGTRLQVFP V domain 2: KAGVTQTPRYLIKTRGQQVTLSCSPISGHRSVSWYQQTPGQGLQFLFEYFSETQRNKGNFPGRFSGRQFSNSRSEMNVSTLELGDSALYLCASSHGGAYEQYFGPGTRLTVTE |  | > 60%
4 | A01 TCR (TCR, V domains shown) Valpha: QQGEEDPQALSIQEGENATMNCSYKTSINNLQWYRQNSGRGLVHLILIRSNEREKHSGRLRVTLDTSKKSSSLLITASRAADTASYFCATDERDDMRFGAGTRLTVKP Vbeta: GVIQSPRHEVTEMGQEVTLRCKPISGHDYLFWYRQTMMRGLELLIYFNNNVPIDDSGMPEDRFSAKMPNASFSTLKIQPSEPRDSAVYFCASSLNTEAFFGQGTRLTVV | recognises | 
5 | C01 TCR (TCR, V domains shown) Valpha: QQGEEDPQALSIQEGENATMNCSYKTSINNLQWYRQNSGRGLVHLILIRSNEREKHSGRLRVTLDTSKKSSSLLITASRAADTASYFCATDAYGQNFVFGPGTRLSVLP Vbeta: GVIQSPRHEVTEMGQEVTLRCKPISGHDYLFWYRQTMMRGLELLIYFNNNVPIDDSGMPEDRFSAKMPNASFSTLKIQPSEPRDSAVYFCASGSNTEAFFGQGTRLTVV | recognises | 
